According to the nanobody polyreactivity screen of Harvey et al. (2022):

Assay: yeast display, Sf9 membrane polyspecificity reagent, FACS + sequencing; frameworks hold sequencing errors
In short: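 Nanobodies came from a synthetic yeast display library in Saccharomyces cerevisiae BJ5465, induced with galactose for 36–48 hours and stained for 1 hour at 4 °C with 10% biotinylated, detergent-solubilized Sf9 membrane reagent. Cells were enriched on streptavidin microbeads and then FACS-sorted, with low and high (top ~1%) gates set on anti-HA fluorescence for expression and streptavidin fluorescence for reagent binding. Each polyreactivity label reflects the gate a clone came from. Genes were amplified by colony PCR, sequenced by MiSeq 2 × 250 and filtered by CDR length.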

| Sequence | polyreactivity (PSR sort gate) |
| --- | --- |
| QVQLVESGGGLVQAGGSLRLSCAASGSTFGYNAMGWYRQAPGKERELVAAISNGSDRTYYADSVKGRFTISRDNAKNTVYLQMNSLKPEDTAVYYCAKDRDFSSPPTESGFDYWGQGTQVTVSS | low polyreactivity |
| QVQLVESGGGLVQAGGSLRLSCAASGSTLGRYTMGWYRQAPGKERELVATITASGGGTYYADSVKGRFTISRDTAKNTVYLQMNSLKPEDTAVYYCNAVLWYHFGYDYWGQGTQVTVSS | low polyreactivity |
| QVQLVESGGGLVQAGGSLRLSCAASGSIFAYYTMGWYRQAPGKEREFVAAISYSGGSTYYADSVKGRFTISRDNAKNTVYLQMNSLKPEDTAVYYCFPGKTRLYGYWGQGTQVTVSS | high polyreactivity |
| QVQLVESGGGLVQAGGSLRLSCAASGSSFSGNFMGWYRQAPGKERELVAAISGRGGSTYYADSVKGRFTISRDNAKNTVYLQMNSLKPEDTAVYYCDAVYLKTYYWGLGTQVTVSS | high polyreactivity |
| QVQLVESGGGLVQAGGSLRLSCAASGSTFWPNAMGWYRQAPGKERELVAAITGGGGTNYADSVKGRFTISRDNAKNTVYLQMNSLKPEDTAVYYCAAKKVNSRSHVKYYYWGQGTQVTVSS | high polyreactivity |
| QVQLVESGGGLVQAGGSLRLSCAASGFTFRWYTMGWYRQAPGKERELVASIDWSGGSTYYADSVKGRFTITRDNAKNTVYLQMNSLKAEDTAVYYCNAGSDIFWSASTYGYWGQGTQVTVSS | high polyreactivity |
| QVQLVESGGGLVQAGGSLRLSCDASGSIFAKNAMGWYRQAPGKERELVAAIDLNGGSTYYADSVKGRFTISRDTAKNTVYLQMNILKPEDTAVYYCDVYYGHSCVIRSSPEYDSWGQGTQVTVSS | low polyreactivity |
| QVQIEESGGGLVQAGGSIRLSCAASGRIFFLNAMGWYRQAPGKERELVAAISKSGGSTYYADSEKGRFTISRDNAKNTGFLQMNSLKPEDTAVYYCAARLHRFIRVDFGYDYWGQGTQVTVSS | high polyreactivity |
| QVQLVESGGGLVQAGGSLRLSCAASAFTFPGNAMGWYRHATGKERQLVAAISGTGGSTYYADSVKGRFTISRDNAKNTVYLQMNSLKPEDTAVYYCAARLGGRRRFGYWGQGTQVTVSS | high polyreactivity |
| QVQLVESGGGLVQAGGSLRLSCAASGFIFGNYVMGWYRQAPGKERELVAAITNGGGNTYYADSVKGRFTISRDNAKNTVYLQMNSLKPEDTAVYYCHPLRYYYWGQGTQVTVSS | high polyreactivity |
| QVQLVESGGGLVQAGGSLRLSCAASGLIFHFNAMGWYRQAPGKERELVAAITSIGGSTFYADSVKGRFTISRDNAKNTVYLQMNSLKPEDTAVYYCAAAISYFFPDYDYWGQGTQVTVSS | low polyreactivity |
| QVQLVESGGGLVQAGGSLRLSCAASGFIFIYNAMGWYRQAPGKERELVAAISRSGGSTYYADSVKGRFTISRDNAKNTVYLHMNSLKPEDTAVYYCNARPGSRYYGYRLYYYWGQGTQVTVSS | high polyreactivity |
| QVQLEESGGGLVQAGGSLSLSCAASGNFFVLYAMGCYRQAPGKERELVASITSDGITYYADSVKGRFTMSRDNAKNTVYLQMNSLKPEDTAVYYCAVDRSYRYLPRGDYWGQGTQVTVSS | low polyreactivity |
| QVQLVESGGGLVQAGGSLRLSCAASGFTFGRYAMGWYRQAPGKERELVAAITWSGGTTTYYADSVKGRFTISRDNAKNTVYLQMTSLKPEDTAVYYCAADLYFYIYSYNYWGQGTQVTVSS | low polyreactivity |
| QVQLVESGGGLVQAGGSLRLSCAASGRTLQTYVMGWYRQAPGKERELVAAITRGGGSTYYADSVKGRFTISRDNAKNTVYLQMNSLKPEDTAVYYCAASALRFNSRFSHWYNYWGQGTQVTVSS | high polyreactivity |
| QVQLQESGGGLMQAGGNLRLSCAASGYISTHYDMDWYRQAPGKERELVARIDDGAITNYADSVKGRFTISRDNAKNTVYLQMNSLKPEDTAVYYCAVSSGDDYYHDYWGQGTQVTVSS | low polyreactivity |

| Sequence | polyreactivity (PSR sort gate) |
| --- | --- |
| QDQLVDSGGGLVQAGGSLRLSCAASGFIFWYYAMGWYRQEPGKERELVAAITSGGNTNYADSVKGRFTISRDNAKNTFYLQMNSLKPEDTAVYYCATGRASGREHDSWGHGTQVTVSS | low polyreactivity |
| QVQLVESGGGLVQAGGSLRLSCAASGSIFTLYAMGSYRQAPGKERELVAAITWSGGSTYYADSVKGRFTISRDNAKNTVYLQMNSLKPEDTAVYYCAKDYLAGGPWEGHVEREYDYWGQGTQVTVSS | low polyreactivity |
| QVQLVESGGGLVQAGGSLRLSCAASGSIFRIYAMGWYRQAPGKEREWVAAINSGGITNYADSVKGRFTISRDNAKNTVYLQMNSLKPEDTAVYYCNARQGVYGLYLRAYPYEYWGQATQVTVSS | low polyreactivity |
| QVQLVESGGGLVQAGGSLRLSCAASGYIFGSYVMGWYRQAPGKERELVAAISRRGGSTYYADSVKGRFTISRDNAKNTVNLQMNSLKPEYTAVYYFSADYGQYAKYDYWGQGTQVTVSS | high polyreactivity |
| QVQLVESGGGLVQAGGSLRLSCAASGSIFRPYAMGWYRQAPGKERELVAAISVRGGRSYYADSVKGRFTISRDNAKNTVYLQMNSLKPEDTAVYYCNTVRQLGYTGYDYWGQGTQVTVSS | high polyreactivity |
| HAQQQESGGGLVQAGGSLRRSCAASGSIFRFSGRGWYRLAPGKERELVASIGFGSITYYADRVKGRFTISRDNANNTVYLQMNSLKPEDTAVYYCAVQVQDESWLDYWGQGTQVTVSC | low polyreactivity |
| QVQLVESGGGLVQAGGSLRLSCAASGSIFYDYAMGWYRQAPGKERELVAAISGRGGSTYYADSVKGRFTISRDNAKNTVYLQMNSLKPEDTAVYYCAARYRYRFLDRYNYWGQGTQVTVSS | high polyreactivity |
| QVQLVESGGGLVQAGGSLRLSCAASGSIFKYNTMGWYREAPGKESELVAAINGGGSTYYADSVKGRFTISRDNAKNTVYVTMNCLNPEDTAVYYCAKVQRTRGWSLDYWGHGTQVTVSS | high polyreactivity |
| QVQLVESGGGLVQAGGSLRLSCAASGRIFDSNAMGWYRQAPGTEREFVAAITYSSGSTYYRNSVKGRFTISRDNAKNTVYLQMNSLKPEDTAVYYCAAVLYWRTLSSRYDYWGQGTQVTVSS | high polyreactivity |
| QVQLVESGGGLVQAGGSLRLSCAASGTFYGNTMGWYRQAPGKERELVAVISIDVSTNYADSVKGRFTISRDNAKNTVYLQMNSLKPEDTAVYYCAADYLRQFRDYDYWGQGTQVTVSS | low polyreactivity |
| QVQLVESGGGLVQAGGRLRLSCAASGRIFKPNAMGSYRQAPGKEREFVARITRNTGSTYYADSVKGRFSISRDNEKNTVYLQMNSLKPEDNAVYDCAAGAPSYYYYWGHGTQVTVSS | high polyreactivity |
| QVQLVESGGGLVQAGGSLRLSCAASGRTFVKNAMGWYRQAPGKERELVAAIDRGSRTNYADSVKGRFTISRDNAKNTVYLQMNSLKPEDTAVYYCATRYRVRDDQTGTWSIFGYWGQGTQVTVSS | high polyreactivity |
| QVQLVESGGGLVQAGGSLRLSCAASGRTFVGYAMGWYRQAPGKERELVAAISWSGGRTYYADSVKGRFTISRDNAKNTVYLQMNSLKPEDTAVYYCAALLYRTPYYPYYGYDYWGQGTQVTVSS | high polyreactivity |
| QVQLVESGGGLVQAGGSLRLSCAASGQTFDWYAMGWYRQAPGKERELVAAITSVGSTYYADSVKGRFTISRDNAKNSVYLQMNSLKPEDTAVYYCAVEGVIWSFWPYEYWGQGTQVTVSS | high polyreactivity |
| QVQLVESGGGLVQAGGSLRVSCAASGFTFNYYAMGWYRQAAGKERELVAAISKDGTRTYYADSVKGRFTISRDNAKNTVYLQMNRQKPEDTAVYYCAAKASPAGSNYWGQGTQVTVSS | high polyreactivity |
| QVQLVESGGGLVQAGGSLRLSCAASGSIFGKNAMGWYRQAPGKERELVAAISFSGGSTYYADSVKGRFTISRDNAKNTVYLQMNSLKPEDTAVYYCAARKYSWYPAGGYDYWGQGTQVTVSS | high polyreactivity |
